Measured values taken from patent US20240228572A1, “LONG ACTING GLUCAGON RECEPTOR SELECTIVE PEPTIDES AND METHODS OF USE” (i2o Therapeutics, Inc., priority 2020, published 2024).

Biological target: hGIPR (human) (UniProt P48546)
Assay: cell-based or functional assay

hGIPR (human), sequence (P48546 22-466): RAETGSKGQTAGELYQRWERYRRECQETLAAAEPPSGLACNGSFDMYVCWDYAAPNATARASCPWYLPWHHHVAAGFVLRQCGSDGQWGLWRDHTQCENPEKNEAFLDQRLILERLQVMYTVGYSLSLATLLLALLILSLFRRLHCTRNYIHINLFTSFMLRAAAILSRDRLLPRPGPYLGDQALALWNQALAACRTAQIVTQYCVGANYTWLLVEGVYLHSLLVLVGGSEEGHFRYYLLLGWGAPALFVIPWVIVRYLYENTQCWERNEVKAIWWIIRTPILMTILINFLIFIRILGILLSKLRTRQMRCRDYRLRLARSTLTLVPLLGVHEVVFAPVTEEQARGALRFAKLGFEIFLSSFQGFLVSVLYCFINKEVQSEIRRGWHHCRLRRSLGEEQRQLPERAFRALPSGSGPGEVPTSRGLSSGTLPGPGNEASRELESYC

pEC50, cAMP accumulation (pEC50 (-log M)): 11.8
Substance: hGIP (from UniProt P09681 52-93) (peptide)
